# T1: Abp1, P15891
# T1 sequence (P15891 535-592, looked up): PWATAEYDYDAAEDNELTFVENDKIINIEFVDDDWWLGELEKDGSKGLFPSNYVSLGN
# T2: Bbc1, P47068
# T2 sequence (P47068 1-78, looked up): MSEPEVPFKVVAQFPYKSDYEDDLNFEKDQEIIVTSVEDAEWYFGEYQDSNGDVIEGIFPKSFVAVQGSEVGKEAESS
# T3: Boi1, P38041
# T3 sequence (P38041 1-86, looked up): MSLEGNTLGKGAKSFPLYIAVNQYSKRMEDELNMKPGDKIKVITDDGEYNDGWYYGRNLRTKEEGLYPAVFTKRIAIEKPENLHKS
# T4: Boi2, P39969
# T4 sequence (P39969 32-116, looked up): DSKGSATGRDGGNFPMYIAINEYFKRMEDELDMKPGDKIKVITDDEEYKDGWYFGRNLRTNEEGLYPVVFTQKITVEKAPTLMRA
# T5: Bud14, P27637
# T5 sequence (P27637 247-328, looked up): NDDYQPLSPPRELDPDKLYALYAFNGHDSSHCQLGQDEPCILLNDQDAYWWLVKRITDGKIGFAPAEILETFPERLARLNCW
# T6: Bzz1-1, P38822
# T6 sequence (P38822 478-572, looked up): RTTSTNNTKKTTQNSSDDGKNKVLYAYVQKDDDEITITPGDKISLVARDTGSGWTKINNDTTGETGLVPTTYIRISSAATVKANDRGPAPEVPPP
# T7: Bzz1-2, P38822
# T7 sequence (P38822 568-633, looked up): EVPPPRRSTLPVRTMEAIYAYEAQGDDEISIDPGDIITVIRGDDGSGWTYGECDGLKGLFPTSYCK
# T8: Cdc25, P04821
# T8 sequence (P04821 50-136, looked up): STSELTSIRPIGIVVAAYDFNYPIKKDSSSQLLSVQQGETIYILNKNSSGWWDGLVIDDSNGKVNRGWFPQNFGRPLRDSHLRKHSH
# T9: Cyk3, Q07533
# T9 sequence (Q07533 1-83, looked up): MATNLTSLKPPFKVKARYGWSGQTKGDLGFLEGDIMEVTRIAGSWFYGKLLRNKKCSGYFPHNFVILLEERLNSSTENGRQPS
# T10: Fus1, P11710
# T10 sequence (P11710 432-512, looked up): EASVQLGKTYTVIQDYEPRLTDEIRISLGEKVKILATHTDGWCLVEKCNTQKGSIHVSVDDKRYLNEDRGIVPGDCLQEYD
# T11: Hof1, Q05080
# T11 sequence (Q05080 590-669, looked up): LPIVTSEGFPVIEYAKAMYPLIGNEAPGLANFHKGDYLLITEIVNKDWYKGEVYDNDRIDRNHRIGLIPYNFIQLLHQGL
# T12: Hse1, P38753
# T12 sequence (P38753 208-285, looked up): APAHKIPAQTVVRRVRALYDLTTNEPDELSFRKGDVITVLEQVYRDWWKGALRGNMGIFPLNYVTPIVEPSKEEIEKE
# T13: Lsb1, P53281
# T13 sequence (P53281 45-122, looked up): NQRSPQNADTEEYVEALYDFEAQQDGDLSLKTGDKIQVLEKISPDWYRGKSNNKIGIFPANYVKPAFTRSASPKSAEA
# T14: Lsb3, P43603
# T14 sequence (P43603 385-451, looked up): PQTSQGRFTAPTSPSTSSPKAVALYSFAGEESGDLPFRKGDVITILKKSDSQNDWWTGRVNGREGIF
# T15: Lsb4, P32793
# T15 sequence (P32793 402-468, looked up): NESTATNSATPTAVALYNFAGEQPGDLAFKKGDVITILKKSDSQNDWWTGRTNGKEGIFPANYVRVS
# T16: Myo5, Q04439
# T16 sequence (Q04439 1072-1160, looked up): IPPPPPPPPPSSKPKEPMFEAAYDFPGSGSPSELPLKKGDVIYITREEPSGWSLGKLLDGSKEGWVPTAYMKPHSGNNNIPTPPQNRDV
# T17: Nbp2, Q12163
# T17 sequence (Q12163 103-180, looked up): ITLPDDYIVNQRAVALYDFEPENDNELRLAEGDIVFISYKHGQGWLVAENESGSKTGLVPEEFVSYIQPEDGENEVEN
# T18: Pex13, P80667
# T18 sequence (P80667 295-386, looked up): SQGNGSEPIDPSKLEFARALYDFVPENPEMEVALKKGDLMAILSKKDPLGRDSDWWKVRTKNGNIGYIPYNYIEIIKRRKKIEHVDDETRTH
# T19: Pin3, Q06449
# T19 sequence (Q06449 53-122, looked up): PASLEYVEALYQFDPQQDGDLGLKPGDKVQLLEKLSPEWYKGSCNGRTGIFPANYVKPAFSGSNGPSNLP
# T20: Sla1-2, P32790
# T20 sequence (P32790 60-140, looked up): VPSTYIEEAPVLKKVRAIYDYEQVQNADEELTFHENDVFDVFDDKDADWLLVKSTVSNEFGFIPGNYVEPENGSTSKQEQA
# T21: Sla1-3, P32790
# T21 sequence (P32790 344-424, looked up): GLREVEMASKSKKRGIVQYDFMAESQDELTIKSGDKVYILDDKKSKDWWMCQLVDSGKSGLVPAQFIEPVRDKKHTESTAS
# Legend:
# Assay in all cases: SPOT array
# Abp1, P15891 = molecular target: T1, Abp1, P15891; conditions: median of control spots 935
# Bbc1, P47068 = molecular target: T2, Bbc1, P47068; conditions: median of control spots 796
# Bem1-1, P29366 = conditions: median of control spots 4282
# Bem1-2, P29366 = conditions: median of control spots 4347
# Boi1, P38041 = molecular target: T3, Boi1, P38041; conditions: median of control spots 1162
# Boi2, P39969 = molecular target: T4, Boi2, P39969; conditions: median of control spots 1161
# Bud14, P27637 = molecular target: T5, Bud14, P27637; conditions: median of control spots 956
# Bzz1-1, P38822 = molecular target: T6, Bzz1-1, P38822; conditions: median of control spots 4446
# Bzz1-2, P38822 = molecular target: T7, Bzz1-2, P38822; conditions: median of control spots 4538
# Cdc25, P04821 = molecular target: T8, Cdc25, P04821; conditions: median of control spots 969
# Cyk3, Q07533 = molecular target: T9, Cyk3, Q07533; conditions: median of control spots 1451
# Fus1, P11710 = molecular target: T10, Fus1, P11710; conditions: median of control spots 1200
# GST = conditions: median of control spots 978
# Hof1, Q05080 = molecular target: T11, Hof1, Q05080; conditions: median of control spots 4086
# Hse1, P38753 = molecular target: T12, Hse1, P38753; conditions: median of control spots 1727
# Lsb1, P53281 = molecular target: T13, Lsb1, P53281; conditions: median of control spots 388
# Lsb3, P43603 = molecular target: T14, Lsb3, P43603; conditions: median of control spots 406
# Lsb4, P32793 = molecular target: T15, Lsb4, P32793; conditions: median of control spots 397
# Myo3, P36006 = conditions: median of control spots 468
# Myo5, Q04439 = molecular target: T16, Myo5, Q04439; conditions: median of control spots 471
# Nbp2, Q12163 = molecular target: T17, Nbp2, Q12163; conditions: median of control spots 357
# Pex13, P80667 = molecular target: T18, Pex13, P80667; conditions: median of control spots 1341
# Pin3, Q06449 = molecular target: T19, Pin3, Q06449; conditions: median of control spots 2171
# Rvs167, P39743 = conditions: median of control spots 2707
# Sho1, P40073 = conditions: median of control spots 1148
# Sla1-2, P32790 = molecular target: T20, Sla1-2, P32790; conditions: median of control spots 712
# Sla1-3, P32790 = molecular target: T21, Sla1-3, P32790; conditions: median of control spots 5475
# Sequence of Bem1-2, P29366 (P29366 139-227): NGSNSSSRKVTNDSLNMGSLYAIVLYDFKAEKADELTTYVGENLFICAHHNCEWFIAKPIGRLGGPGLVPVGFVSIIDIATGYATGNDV
# Sequence of Sho1, P40073 (P40073 287-367): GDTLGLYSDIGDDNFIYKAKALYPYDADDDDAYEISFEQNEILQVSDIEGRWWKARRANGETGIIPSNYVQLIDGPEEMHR
# Sequence of Rvs167, P39743 (P39743 419-482): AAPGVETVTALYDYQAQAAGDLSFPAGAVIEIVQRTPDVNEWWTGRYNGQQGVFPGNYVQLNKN
# Sequence of Bem1-1, P29366 (P29366 55-141): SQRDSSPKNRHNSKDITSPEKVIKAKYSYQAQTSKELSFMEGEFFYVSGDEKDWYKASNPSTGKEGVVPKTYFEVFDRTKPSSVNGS
Binder,"SPOT intensity (Abp1, P15891)","SPOT intensity (Bbc1, P47068)","SPOT intensity (Bem1-1, P29366)","SPOT intensity (Bem1-2, P29366)","SPOT intensity (Boi1, P38041)","SPOT intensity (Boi2, P39969)","SPOT intensity (Bud14, P27637)","SPOT intensity (Bzz1-1, P38822)","SPOT intensity (Bzz1-2, P38822)","SPOT intensity (Cdc25, P04821)","SPOT intensity (Cyk3, Q07533)","SPOT intensity (Fus1, P11710)",SPOT intensity (GST),"SPOT intensity (Hof1, Q05080)","SPOT intensity (Hse1, P38753)","SPOT intensity (Lsb1, P53281)","SPOT intensity (Lsb3, P43603)","SPOT intensity (Lsb4, P32793)","SPOT intensity (Myo3, P36006)","SPOT intensity (Myo5, Q04439)",also measured
SSAAPPPPPRRATPE,23,8,1,1,1,0,0,0,1,2,0,0,1,1,0,266,706,965,99,18,"SPOT intensity (Nbp2, Q12163): 0; SPOT intensity (Pex13, P80667): 58; SPOT intensity (Pin3, Q06449): 5; SPOT intensity (Rvs167, P39743): 1790; SPOT intensity (Sho1, P40073): 3; SPOT intensity (Sla1-2, P32790): 0; SPOT intensity (Sla1-3, P32790): 0"
APPPPPRRATPEKKP,77,14,0,3,0,1,0,1,0,3,1,0,1,0,0,30,432,424,92,14,"SPOT intensity (Nbp2, Q12163): 0; SPOT intensity (Pex13, P80667): 68; SPOT intensity (Pin3, Q06449): 8; SPOT intensity (Rvs167, P39743): 525; SPOT intensity (Sho1, P40073): 21; SPOT intensity (Sla1-2, P32790): 0; SPOT intensity (Sla1-3, P32790): 0"
QQEQNTPPLPPKPKS,3,0,1,1,0,0,0,0,3,0,0,0,0,950,184,0,923,776,0,0,"SPOT intensity (Nbp2, Q12163): 0; SPOT intensity (Pex13, P80667): 79; SPOT intensity (Pin3, Q06449): 0; SPOT intensity (Rvs167, P39743): 0; SPOT intensity (Sho1, P40073): 14; SPOT intensity (Sla1-2, P32790): 1; SPOT intensity (Sla1-3, P32790): 3"
